This is an account of results in patent US20200109196A1 (MOGAM INSTITUTE FOR BIOMEDICAL RESEARCH, published 2020).

The labels stand for the following.
T1: human CEACAM1 expressed on the cell surface (CEACAM1-Jurkat T cells); HEK293 cells transfected with human … (human, UniProt P13688 35-526)
T1 construct: whole, on cells; also called CCM1
T1 sequence (looked up): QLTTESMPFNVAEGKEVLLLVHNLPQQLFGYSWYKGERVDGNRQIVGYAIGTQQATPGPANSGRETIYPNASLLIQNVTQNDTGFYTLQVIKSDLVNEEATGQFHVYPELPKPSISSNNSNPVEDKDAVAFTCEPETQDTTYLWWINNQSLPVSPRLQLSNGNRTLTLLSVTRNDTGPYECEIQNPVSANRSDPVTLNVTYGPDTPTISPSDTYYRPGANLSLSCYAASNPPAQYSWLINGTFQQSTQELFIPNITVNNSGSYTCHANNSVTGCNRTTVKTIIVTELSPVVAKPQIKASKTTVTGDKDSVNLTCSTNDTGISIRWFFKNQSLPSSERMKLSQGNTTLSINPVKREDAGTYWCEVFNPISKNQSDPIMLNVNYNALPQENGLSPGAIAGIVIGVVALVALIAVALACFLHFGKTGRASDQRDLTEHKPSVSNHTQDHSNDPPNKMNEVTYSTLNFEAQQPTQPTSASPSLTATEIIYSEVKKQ

T2: recombinant human CEACAM-5/CD66e protein (R&D systems; Cat. No. 4128-CM) (human, UniProt P06731 35-685)
T2 construct: Bought protein; also called HCCM5
T2 sequence (looked up): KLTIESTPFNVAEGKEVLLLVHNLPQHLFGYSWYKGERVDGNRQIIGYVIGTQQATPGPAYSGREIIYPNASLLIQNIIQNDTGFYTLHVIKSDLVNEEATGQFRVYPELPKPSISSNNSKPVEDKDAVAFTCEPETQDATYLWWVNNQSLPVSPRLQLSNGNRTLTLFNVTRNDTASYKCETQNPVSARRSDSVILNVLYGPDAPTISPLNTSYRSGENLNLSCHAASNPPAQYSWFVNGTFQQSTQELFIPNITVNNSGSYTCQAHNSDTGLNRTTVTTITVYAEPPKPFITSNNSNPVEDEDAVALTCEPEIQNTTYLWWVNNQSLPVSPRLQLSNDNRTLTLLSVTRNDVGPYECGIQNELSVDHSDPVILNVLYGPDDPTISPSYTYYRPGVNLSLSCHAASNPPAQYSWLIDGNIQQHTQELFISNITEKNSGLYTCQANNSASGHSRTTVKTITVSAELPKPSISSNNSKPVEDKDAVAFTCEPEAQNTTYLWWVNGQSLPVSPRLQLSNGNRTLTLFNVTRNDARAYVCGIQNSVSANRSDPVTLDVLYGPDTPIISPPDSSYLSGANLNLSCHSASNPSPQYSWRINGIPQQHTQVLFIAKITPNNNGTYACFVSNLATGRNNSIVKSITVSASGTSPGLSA

B1: 4R9 (antibody, human IgG4 S228P, lambda, V domains shown)
VH: EVQLLESGGGLVQPGGSLRLSCAASGFTFSNYAMSWVRQAPGKGLEWVSVISHGGGSIYYADSVKGRLTISRDNSKNTLYLQMNSLRAEDTAVYYCARDPTKGYAPTFDYWGQGTLVTVSS
VL: QSVLTQPPSASGTPGQRVTISCSGSSSNIGNNYVSWYQQLPGTAPKLLIYADSRRPSGVPDRFSGSKSGTSASLAISGLRSEDEADYYCGAWDLSLNGYVFGGGTKLTVLG
notes: also called C25-derived clone 4R9
B2: 4R26 (antibody, human IgG4 S228P, lambda, V domains shown)
VH: B1 VH
VL: B1 VL with R54K, P56L, L94G, S95R
notes: also called C25-derived clone 4R26
B3: 4R9_H2-2 (antibody, human IgG4 S228P, lambda, V domains shown)
VH: B1 VH with T107L
VL: B1 VL
notes: also called C25-derived clone 4R9_H2-2
B4: C22 (antibody, human IgG4 S228P, lambda, V domains shown)
VH: EVQLLESGGGLVQPGGSLRLSCAASGFTFSDYDMSWVRQAPGKGLEWVSMIYSGSSSKYYADSVKGRFTISRDNSKNTLYLQMNSLRAEDTAVYYCAKAPLPFYFRPKSYYYAMDVWGQGTLVTVSS
VL: B1 VL with N31S, Y33N, S35T, D52N, R54H, A91S, L94S, G98A
B5: C17 (antibody, human IgG4 S228P, lambda, V domains shown)
VH: EVQLLESGGGLVQPGGSLRLSCAASGFTFSDYSMSWVRQAPGKGLEWVSVIYPDDGNTYYADSVKGRFTISRDNSKNTLYLQMNSLRAEDTAVYYCARGSIWWLSLIPSSYNAMDVWGQGTLVAVSS
VL: B1 VL with Y33A, S35N, D52N, R54H, L94A
B6: C19 (antibody, human IgG4 S228P, lambda, V domains shown)
VH: EVQLLESGGGLVQPGGSLRLSCAASGFTFSGYAMSWVRQAPGKGLEWVSGIYHDGGSTYYADSVKGRFTISRDNSKNTLYLQMNSLRAEDTAVYYCARVTVLCTTYGCSSYDGMDVWGQGTLVTVSS
VL: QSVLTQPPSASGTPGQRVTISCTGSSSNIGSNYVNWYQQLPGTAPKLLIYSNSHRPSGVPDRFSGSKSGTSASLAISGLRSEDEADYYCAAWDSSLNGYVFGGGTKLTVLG

Numbering of substitutions follows the chain as printed.

The first test concerns the target T1, human CEACAM1 expressed on the cell …. Put plainly: flow cytometry on CEACAM1-Jurkat T cells, antibody at 0.2 µg/ml. How it is done: The CEACAM1-Jurkat T cells prepared above were treated with Fc block solution and incubated for 15 minutes. […] Herein, it is noted that the cell numbers were adjusted to 1×10⁵. The cells incubated with the antibodies were repeatedly subjected to the washing procedure of resuspending the cells in a FACS buffer and centrifuging the solution at 1,500 rpm.
PE-conjugated goat anti-human F(ab)₂; (Sigma; Cat. No. P8047)) was diluted in the FACS buffer at a volume ratio of 1:200, and then added to the cells at 100 μl/well. Cells were resuspended well and incubated at 4° C. for 30 minutes in a dark condition.
The cells incubated with the fixation buffer were repeatedly subjected to the washing procedure of resuspending the cells in a FACS buffer, centrifuging the solution at 1,500 rpm, and discarding the supernatant. The washed cells were resuspended in 200 μl of a FACS buffer, and the mean fluorescence intensities (MFIs) of the PE-labeled cells were monitored by a FACS LSR-Fortessa. All FACS analyses were conducted using the FlowJo software.
For orientation: Flow cytometry measures light scatter and fluorescence of single cells or particles in a stream.
As to B1, the “percent of maximal binding level” value was determined as 80%. Still for that read-out and setting: the same measure for B2: 80%. Same read-out and setting: the result for B3 reads 80%.

The target in a further test is T2, recombinant human CEACAM-5/CD66e …. Put plainly: ELISA on coated antigen (0.25 µg/ml), antibody 3 µg/ml, HRP anti-human IgG Fc, OD450. From the text:
All of the recombinant human CEACAM-1/CD66a protein (R&D systems; Cat No. 2244-CM, HCCM1), recombinant human CEACAM-5/CD66e protein (R&D systems; Cat. No. 4128-CM, HCCM5), recombinant human CEACAM-6/CD66c protein (R&D systems; Cat. No. 3934-CM, HCCM6), recombinant human CEACAM-3/CD66d protein (Sino Biological; Cat. No. 11933-H08H, HCCM3), human B7-H5/Gi24/VISTA protein (Sino Biological; Cat. No. 13482-H08H, HVISTA), recombinant human CEACAM-1/CD66a protein Bulk (R&D systems; Cat. No. 2244-CM, HCCM1 (bulk)), recombinant human CEACAM1-N domain-Kappa protein (Mogam, in-house production, HCCM1-N domain-kappa), and BSA protein (2.5 μg each) were dissolved in 10 ml of PBS, respectively, and dispensed into a 96-well plate at 100 μl/well, which was incubated at 4° C. overnight. Thereafter, each well was treated with 300 μl of 1% (v/v) bovine serum albumin, and incubated at 37° C. for 1 hour.
The diluted antibodies were dispensed into each well coated with each protein at 100 μl/well, and incubated at 37° C. for 1 hour. Then, each well was washed 3 times with a washing buffer prepared by diluting 10 μl of Tween 20 (Sigma-Aldrich; Cat. No. P9146) in 990 μl of PBS. Thereafter, 2 μl of HRP-conjugated human anti-IgG-Fc antibody (anti-human IgG Fc, Sigma Cat. No. A0170) was diluted in 10 ml of PBS, added to the wells at 100 μl/well, and incubated for 1 hour.
After completion of the reaction, the wells were washed three times with the washing buffer, and 100 μl of TMB solution was added to each well to induce color development. Then, 100 μl of 2 M H₂SO₄ was added to each well to stop the reaction, and the absorbance was measured at a wavelength of 450 nm.
On the technique in general: In an ELISA, binding on a coated surface is turned into a signal by an enzyme label.
For the molecule B4, the binding result was “binds”. Turning to B5, the binding result is given as “binds”.

With B6, the binding result is recorded as “binds”.
